The assay has as its target wild-type H3 A/Perth/16/2009 recombinant hemagglutinin (rHA) (influenza A virus, H3 A/Perth/16/2009). Kind of assay: cross-linking.

Consider “wild-type H3 A/Perth/16/2009 recombinant hemagglutinin (rHA) (natural protein)”, for which the percent cross-linked after 1 month at 25°C worked out at 72%.

These data come from publication PMC4320835.
